5 compounds from US7214663B2, “Tripeptide prodrug compounds” (Medarex, Inc., priority 2001, dated 2007) can be followed below.

SMILES strings stand for the structures. Like-named read-outs stand apart in the source and are kept apart here. Some results are limits rather than exact numbers.

The test system of data set [1] is HT-29 (colon carcinoma) cells. The note with it: HT29, 48 hours, 3H-thymidine incorporation. Here is the method:
(§1) Adherent cells, LNCaP (prostate carcinoma), HT-29 (colon carcinoma) and PC-3 (prostate carcinoma), were cultured in DMEM media containing 10% heat inactivated fetal calf serum (FCS). On the day of the study the cells were detached from the plate with a trypsin solution. The collected cells were washed and resuspended at a concentration of 0.25×10^6 cells/ml in DMEM containing 10% FCS. 100 μl of cell suspension were added to 96 well plates and the plates were incubated for 3 hours to allow the cells to adhere. […] The plates were then incubated for 24 hours, pulsed with 10 μl of a 100 μCi/ml ^3H-thymidine and incubated for an additional 24 hours (total incubation time 48 hours). The plates were harvested using a 96 well Harvester (Packard Instruments) and counted on a Packard Top Count Counter. Four parameter logistic curves were fitted to the ^3H-thymidine incorporation as a function of drug molarity using Prism software to determine IC50 values.
(§2) Prostate carcinoma cells, LNCaP and PC-3 cells or colon carcinoma cells HT-29, were incubated with increasing concentration of the indicated compounds for 48 hours and cellular proliferation was measured using the ^3H-thymidine assay.
(Dividing cells build labelled thymidine or BrdU into new DNA.)

For data set [2], the system named is LNCaP (prostate carcinoma) cells. Particulars: 48 hours, 3H-thymidine incorporation. The procedure: as §1, §2
For data set [3], the system named is PC-3 (prostate carcinoma) cells. Particulars: PC-3, 48 hours, 3H-thymidine incorporation. The procedure:
as §1, §2

Data set [4] in a line: Comparative metabolism in mice, plasma AUC.
Protocol: (§3) Plasma was obtained from three individual animals in each group at 5 minutes, 1, 2, 4, or 6 hr.
A short description of data set [5]: SD-MTD studies, 60 days, normal mice (Example 14). The note with it: mouse, in vivo. Here is the method:
In the single dose Maximum Tolerated Dose (SD-MTD) studies, groups of normal mice were administered intravenous bolus doses of the prodrug. The mice were observed daily for 60 days and body weights measured twice weekly. The SD-MTD was estimated to be equal to the highest dose that produced no death in mice after 60 days.

Data set [6] relates to HeLa cell anion exchange fraction (F1), trouase. In words: Relative cleavage by HeLa cell anion exchange fraction (F1) versus Suc-βAla-Leu-Ala-Leu standard. The data set is classed as biochemical, human. Here is the method:
Thirty billion commercially produced HeLa Cells (human cervical carcinoma, Computer Cell Culture Ceizter, Seneffe, Belgium) were homogenized with a sonicator and with a Dounce homogenizer in 108 mL of aqueous lysis solution. The lysis solution contained 0.02% w/v Triton X-100, 0.04% w/v sodium azide, and a cocktail of protease inhibitors (2 tablets/50 mL Complete™, EDTA-free tablets, Roche Molecular Biochemicals). The cell homogenate was centrifuged 30 minutes at 4° C. at 5000×g and the pellet was homogenized in a second 108 mL of lysis solution using a Dounce homogenizer and centrifuged as before. The supernatants were combined and centrifuged for 90 min at 145,000×g at 4° C.
A portion of the ultracentrifugation supernatant was diluted 2-fold with a 20 mM triethanolamine-HCl pH 7.2 buffer containing 0.01% (w/v) Triton X-100 and 0.02% (w/v) sodium azide (equilibration buffer). Thirty mL of the resulting solution, corresponding to approximately 180 mg of protein, was loaded at 4° C. on a 2.6×9.4 cm Source™ 15Q (Amersham Pharmacia Biotech) low pressure anion exchange chromatography column (1 ml/minute). The column was then washed with 250 ml of the equilibration buffer at a flow rate of 1 mL/minute. Proteins were eluted in a NaCl linear concentration gradient (0–0.5 M in the equilibration buffer, total volume of the gradient was 1000 ml) at a flow rate of 3 ml/minute. Two-minute fractions were collected and used for enzyme activity determination using βAla-Leu-Ala-Leu-Dox as the substrate. Its transformation into Ala-Leu-Dox was quantified by reverse phase high performance liquid chromatography utilizing fluorescence detection of the anthracycline moiety. The fractions containing the highest activity levels were pooled (fractions #43–46; ˜0.13 M NaCl), supplemented with protease inhibitors (Complete™, EDTA-free tablets, Roche Molecular Biochemicals), and stored as aliquots at −80° C.
Test compounds were incubated for 2 hr at 37° C. at a concentration of 12.5 μg/mL with HeLa cell anion exchange fraction (F1), as prepared in Example 1(c). Following incubation, three volumes of acetonitrile were added to stop the reaction and remove protein from the mixture. The sample was centrifuged at 18,000 g for 5 minutes and 100 μL of supernatant was mixed with 300 μL of water prior to analysis by HPLC. For HPLC analysis 50 μL of sample was injected on a 4.6×50 mm 2μ TSK Super-ODS chromatography column at 40° C. and eluted with a 3 minute linear gradient from 26% to 68% acetonitrile in aqueous 20 mM ammonium acetate pH 4.5 buffer at 2 mL/min. Detection was by fluorescence using an excitation wavelength of 235 nm and an emission wavelength of 560 nm.
the amount of cleavage of each test compound was compared to the amount of a standard Suc-βAla-Leu-Ala-Leu-therapeutic agent conjugate cleaved by F1 under the same conditions. The therapeutic agent in the standard (Dox or Dnr) was the same as in the test compound. Table 3 provides the relative cleavage rates of several tripeptide prodrugs.

Data set [7] is described as follows: Metabolism and clearance of Suc-Met-Ala-Leu-Dox in mice (plasma, urine). Particulars: mouse, in vivo, iv, 120 mg/kg. In kind it is in vivo, mouse. Here is the method: Plasma samples were obtained at 1 or 4 hours, and urine was collected at 2 and 24 hours post administration. Levels of the prodrug and metabolites were measured by LC-MS with UV detection of doxorubicin.

For data set [8] the following is noted: mouse, in vivo.
Data set [9] concerns healthy young female normal mice. The note with it: Example 7.
The nature of data set [10]: in vivo. Particulars: female, ICR, mouse, iv, 100 umol/kg.
Protocol: as §3
Data set [11] can be described thus: Repeat-dose tolerability / repeat dose MTD in tumor bearing mice. In kind it is in vivo, mouse. Particulars: mouse, in vivo, Table 12, re-analyzed. The text has this: In one study, one animal in each dose group (n=8) was terminated as a possible drug-related toxicity death late in the study, at Days 58 and 57 in the low and high dose-groups respectively. The safety of the compound was evidenced by little body weight loss in either the high or low dose groups (less than 5% of the initial weight) during the 60-day observation period, in surviving animals (FIG. 14). In the other study, both the high and low dose were well tolerated. Only one animal in the high dose group (n=10) had over 15% of body weight loss at the end of the study (Day 61).
In repeat-dose studies in tumor bearing mice, groups of ten mice were dosed with various amounts of prodrug for a total of five doses at either five day or 1 week intervals. […] Thus, the prodrugs permit a much greater amount of therapeutic agent to be delivered to the body as a whole and thus to the vicinity of the target cell.

Setting [12] is: single IV bolus approximately 100 μmol/Kg, ICR mice.
Setting [13] is: intravenous, SD MTD (mg/kg), value in parentheses (doxorubicin equivalent dose), Table 11, doses as first stated.
Setting [14] is: intravenous, SD MTD (mg/kg), value in parentheses: doxorubicin equivalent dose, Table 12, re-analyzed data and new data.
Where [15] appears, read: intravenous, Table 12, re-analyzed data and new data, read-out: SD MTD.
Where [16] appears, read: iv, Table 11, doses as first stated, intravenous bolus, 60 days, read-out: SD MTD.

As usually defined, the IC50 is the point on the concentration scale where inhibition reaches its midpoint. Usually AUC stands for the area under the concentration-time curve, a measure of exposure. A higher AUC goes with high exposure. As for `CC[C@H](C)[C@H](NC(=O)CCC(=O)O)C(=O)N[C@@H](C)C(=O)N[C@@H](CC(C)C)C(=O)N[C@H]1C[C@H](O[C@H]2C[C@](O)(C(=O)CO)Cc3c(O)c4c(c(O)c32)C(=O)c2c(OC)cccc2C4=O)O[C@@H](C)[C@H]1O` [Suc-Ile-Ala-Leu-Dox], the IC50 in data set [1] turned out to be 47 µM; in data set [2], 1.1 µM; in data set [3] it was 88 µM. Moreover, in data set [4] (female, ICR, mouse, in vivo, iv, 100 umol/kg), the AUC worked out at 452 µM·h. In data set [4] (single IV bolus approximately 100 μmol/Kg of prodrug, ICR mice), the “Dox, area under the plasma concentration time curve” value is 0.9 µM·h. Further, in data set [4] (setting [12]), the “AL-Dox or AG-DOX, area under the plasma concentration time curve” value was 1.0 µM·h. Besides, in [4] (setting [12]), the “L-Dox or G-Dox, area under the plasma concentration time curve” value amounted to 6.2 µM·h.

Consider `COc1cccc2c1C(=O)c1c(O)c3c(c(O)c1C2=O)C[C@@](O)(C(=O)CO)C[C@@H]3O[C@H]1C[C@H](NC(=O)[C@H](CC(C)C)NC(=O)[C@H](Cc2ccc(O)cc2)NC(=O)[C@H](CC(C)C)NC(=O)CCC(=O)O)[C@H](O)[C@H](C)O1` [Suc-Leu-Tyr-Leu-Dox], for which the 50% inhibitory concentration (IC50) in data set [1] turned out to be 42 µM; in data set [2], 9.4 µM; in data set [3], 51 µM. For the same compound, the MTD at 60 day was > 70 mg/kg in [5] (setting [13]), > 70 mg/kg in [5] (setting [14]), > 128 mg/kg in [5] (setting [15]) and > 128 mg/kg in [5] (setting [16]).

Consider `COc1cccc2c1C(=O)c1c(O)c3c(c(O)c1C2=O)C[C@@](O)(C(=O)CO)C[C@@H]3O[C@H]1C[C@H](NC(=O)[C@H](CC(C)C)NC(=O)[C@H](C)NC(=O)[C@H](CCSC)NC(=O)CCC(=O)O)[C@H](O)[C@H](C)O1` [Suc-Met-Ala-Leu-Dox], for which the “Relative Cleavage %” value in data set [6] (2 hr at 37° C., 12.5 μg/mL, HeLa F1, relative to Suc-βAla-Leu-Ala-Leu-(Dox or Dnr) standard) is 49%. In addition, the “Relative Rate of Cleavage” value in data set [6] (relative to Suc-βAla-Leu-Ala-Leu-Dox = 100 (Tables 11 and 12)) is recorded as 49. The MTD at 60 day in data set [5] (setting [13]) turned out to be 42 mg/kg; in [5] (setting [14]), 42 mg/kg; in data set [5] (setting [15]) it was 70 mg/kg; in data set [5] (setting [16]) it was 70 mg/kg. Moreover, in data set [7], the “Plasma 4 hr, percent of administered dose” value is given as ~0.001%. In [7], the “Urine 2 hr, percent of administered dose” value is given as 6.6%. In addition, the figures for the MTD at 28 day in data set [8] (intravenous) and in [8] (iv) were ~40 mg/kg and ~71 mg/kg, respectively. The “dose of doxorubicin at single dose MTD, fold higher than with doxorubicin alone” value in [9] was “about 1.5 fold”. Moreover, in data set [9] (single intravenous 24-120 mg/kg), the “acute signs of toxicity” value is “no acute signs of toxicity”.

As to `CC[C@H](C)[C@H](NC(=O)CCNC(=O)CCC(=O)O)C(=O)N[C@@H](C)C(=O)N[C@@H](CC(C)C)C(=O)N[C@H]1C[C@H](O[C@H]2C[C@](O)(C(=O)CO)Cc3c(O)c4c(c(O)c32)C(=O)c2c(OC)cccc2C4=O)O[C@@H](C)[C@H]1O` [Suc-βAla-Ile-Ala-Leu-Dox], the AUC in data set [10] was found to be 326 µM·h.

As to `COc1cccc2c1C(=O)c1c(O)c3c(c(O)c1C2=O)C[C@@](O)(C(=O)CO)C[C@@H]3O[C@H]1C[C@H](NC(=O)[C@H](CC(C)C)NC(=O)[C@H](C)NC(=O)[C@H](CC(C)C)NC(=O)CCNC(=O)CCC(=O)O)[C@H](O)[C@H](C)O1` [Suc-βAla-Leu-Ala-Leu-Dox, reference compound], the MTD in [5] (SD MTD (mg/kg), value in parentheses (doxorubicin equivalent dose), Table 11, doses as first stated) is 42 mg/kg; in data set [5] (SD MTD (mg/kg), value in parentheses: doxorubicin equivalent dose, Table 12, re-analyzed data and new data) it was 28 mg/kg; in [5] (Table 12, re-analyzed data and new data, read-out: SD MTD), 50 mg/kg; in [5] (setting [16]), 75 mg/kg; in [11] (Repeat Dose MTD (mg/kg), value in parentheses: doxorubicin equivalent dose, Q 5 D × 5 or Q 7 D × 5) it was 32 mg/kg; in data set [11] (Q 5 D × 5 or Q 7 D × 5 as given per compound, read-out: Repeat Dose MTD), 57 mg/kg. The AUC in data set [10] came to 806 µM·h.
